Assay results as given in US11155612 (CENTRO DE INVESTIGACI N CIENT FICA Y DE EDUCACI N SUPERIOR …, dated 2021).
Positions count from the first letter of the chain named. Names may count otherwise.

B1: vNAR V13 (parental sequence) (other)
chain: ASLDQTPRTATRETGESLSINCVLTDTSHILFGTKWLWNNPGSTDWESITIGGRYAESVNNQAKSFSLQIKDLTVEDSGTYYCKAQTIGRRKNLLPRPLVNGIAAMGYSSSDYDGAGTVLTVN
B2: vNAR P98Y (clone M1), anti-VEGF vNAR of SEQ ID NO:1 (other)
chain: B1 chain with P98Y
B3: vNAR R97A (clone M4) (other)
chain: B1 chain with R97A

The binders below were run against VEGF (added at 4 ng/ml in the HUVEC/NHDF angiogenesis assay) (assay: cell-based or functional assay).
Sequence of VEGF (added at 4 ng/ml in the HUVEC/NHDF angiogenesis assay) (P15692 whole entry): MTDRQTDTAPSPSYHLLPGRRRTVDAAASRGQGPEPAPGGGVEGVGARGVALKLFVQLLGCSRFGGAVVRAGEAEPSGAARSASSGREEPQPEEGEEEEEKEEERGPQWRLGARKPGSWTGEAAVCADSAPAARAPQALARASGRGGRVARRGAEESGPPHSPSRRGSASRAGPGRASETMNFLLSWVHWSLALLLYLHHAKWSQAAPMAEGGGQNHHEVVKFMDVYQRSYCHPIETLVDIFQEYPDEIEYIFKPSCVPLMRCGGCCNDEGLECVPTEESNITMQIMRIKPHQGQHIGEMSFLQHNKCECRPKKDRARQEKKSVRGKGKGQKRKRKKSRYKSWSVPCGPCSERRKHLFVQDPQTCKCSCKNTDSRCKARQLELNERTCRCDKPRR
With B1 the “IC50 angiogenesis: network branching” value was 18 µg/mL and the “IC50 angiogenesis: tube length” value was 18 µg/mL.
B2 was tested, and the “IC50 angiogenesis: network branching” value was 11 µg/mL and the “IC50 angiogenesis: tube length” value was 9 µg/mL.
B3 was tested, and the “IC50 angiogenesis: network branching” value was 33 µg/mL and the “IC50 angiogenesis: tube length” value was 21 µg/mL.
